Experimental data: patent publication US20240342207, “MODIFIED NUCLEIC ACID COMPOSITIONS AND ASSOCIATED METHODS FOR TREATMENT OF PHENYLKETONURIA” (BOARD OF REGENTS, THE UNIVERSITY OF TEXAS SYSTEM, published 2024)
Residue numbers refer to the chain shown, from its start.

How the values were obtained:
Test in all cases: EMSA; also decreased affinity in quantified assay
Conditions in all cases: tags: His-tag, E. coli; stem-loop
PAH TH63-64PN = biological target: T1, PAH TH63-64PN (Homo sapiens, UniProt P00439 P00439:1-452, T63P,H64N)
T1 sequence: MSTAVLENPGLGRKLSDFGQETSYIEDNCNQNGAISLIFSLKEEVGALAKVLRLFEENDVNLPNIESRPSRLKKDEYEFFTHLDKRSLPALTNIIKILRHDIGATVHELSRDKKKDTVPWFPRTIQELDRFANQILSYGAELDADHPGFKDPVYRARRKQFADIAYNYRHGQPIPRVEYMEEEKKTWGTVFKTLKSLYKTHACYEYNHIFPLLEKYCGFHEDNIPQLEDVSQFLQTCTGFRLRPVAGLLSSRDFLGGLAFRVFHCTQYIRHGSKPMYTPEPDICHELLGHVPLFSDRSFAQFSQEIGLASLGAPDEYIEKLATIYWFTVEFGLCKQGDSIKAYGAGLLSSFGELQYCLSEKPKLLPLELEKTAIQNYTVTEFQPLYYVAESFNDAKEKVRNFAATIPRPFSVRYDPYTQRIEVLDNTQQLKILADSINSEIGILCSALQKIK
Text: (§1) It was reasoned that supplementing lncRNAs might improve the catalytic activities of the PAH mutants, leading to reduced serum Phe concentrations and improved symptoms in patients with PKU. Scramble (Scr) and HULC mimics representing wild-type HULC nt. 181-201 and HULC A191G mutated sequences were designed for the following studies. 17 PAH mutants that were identified from patients with PKU and are known to affect the enzymatic activity of PAH (21, 22) were selected, and bacterially-expressed wild-type and mutant PAH (FIG. 10 and see FIG. S13A in Li et al. 2021) were collected. […] The denatured wild-type PAH proteins were included as a negative control.
(§2) RNA Electrophoretic Mobility Shift Assay (EMSA). The gel mobility shift assay was performed as previously described (42). Briefly, 500 ng recombinant His-tagged wild-type PAH or mutants were incubated with 0.035 μmol labeled probe in a RNA-protein binding buffer [(50 mM Tris-HCl 7.9, 10% glycerol, 100 mM KCl, 5 mM MgCl₂, 10 mM (3-ME, 0.1% NP40] for 30 min at 30° C. For cold RNA competition, 0.035 μmol radiolabeled RNA probes were first mixed with 7 μmol cold RNA competitors and then subjected to the gel shift assay.

PAH N207S = biological target: T2, PAH N207S (Homo sapiens, UniProt P00439 P00439:1-452, N207S)
T2 sequence: T1 sequence with P63T, N64H, N207S
Text: as §1, §2

PAH R157N = biological target: T3, PAH R157N (Homo sapiens, UniProt P00439 P00439:1-452, R157N)
T3 sequence: T1 sequence with P63T, N64H, R157N
Text: as §1, §2

PAH S349L = biological target: T4, PAH S349L (Homo sapiens, UniProt P00439 P00439:1-452, S349L)
T4 sequence: T1 sequence with P63T, N64H, S349L
Text: as §1, §2

Measured: binding result

CAAAAUGCAUAUGUAUCUUUG (ssRNA) [HULC 181-201 mimic]
no binding: PAH TH63-64PN | PAH N207S | PAH R157N | PAH S349L
